According to patent US20020197616A1 (REGENTS OF THE UNIVERSITY OF MICHIGAN, published 2002):

What was measured:
[1] = biological target: the molecule itself; test: method not described ('our observations'); self-association
[2] = biological target: T1, Nod2 (wild-type, HA-tagged) (human, UniProt Q9HC29 1-1040); test: co-immunoprecipitation, HEK293T extracts
T1 construct: Expressed in HEK293T cells and tested in cell extracts by co-immunoprecipitation; also called Nod2a; wt Nod2; not shown: HA tag; the plasmid is named both pcDNA3-Nod2-HA and pcDNA3-HA-Nod2, so the end that carries the ta
Text: Proteins co-immunoprecipitated with anti-HA antibody were detected with anti-Flag antibody. […] Proteins in total lysate were detected by anti-Flag and anti-HA monoclonal antibody, respectively. […]

T1 sequence (Q9HC29 whole entry): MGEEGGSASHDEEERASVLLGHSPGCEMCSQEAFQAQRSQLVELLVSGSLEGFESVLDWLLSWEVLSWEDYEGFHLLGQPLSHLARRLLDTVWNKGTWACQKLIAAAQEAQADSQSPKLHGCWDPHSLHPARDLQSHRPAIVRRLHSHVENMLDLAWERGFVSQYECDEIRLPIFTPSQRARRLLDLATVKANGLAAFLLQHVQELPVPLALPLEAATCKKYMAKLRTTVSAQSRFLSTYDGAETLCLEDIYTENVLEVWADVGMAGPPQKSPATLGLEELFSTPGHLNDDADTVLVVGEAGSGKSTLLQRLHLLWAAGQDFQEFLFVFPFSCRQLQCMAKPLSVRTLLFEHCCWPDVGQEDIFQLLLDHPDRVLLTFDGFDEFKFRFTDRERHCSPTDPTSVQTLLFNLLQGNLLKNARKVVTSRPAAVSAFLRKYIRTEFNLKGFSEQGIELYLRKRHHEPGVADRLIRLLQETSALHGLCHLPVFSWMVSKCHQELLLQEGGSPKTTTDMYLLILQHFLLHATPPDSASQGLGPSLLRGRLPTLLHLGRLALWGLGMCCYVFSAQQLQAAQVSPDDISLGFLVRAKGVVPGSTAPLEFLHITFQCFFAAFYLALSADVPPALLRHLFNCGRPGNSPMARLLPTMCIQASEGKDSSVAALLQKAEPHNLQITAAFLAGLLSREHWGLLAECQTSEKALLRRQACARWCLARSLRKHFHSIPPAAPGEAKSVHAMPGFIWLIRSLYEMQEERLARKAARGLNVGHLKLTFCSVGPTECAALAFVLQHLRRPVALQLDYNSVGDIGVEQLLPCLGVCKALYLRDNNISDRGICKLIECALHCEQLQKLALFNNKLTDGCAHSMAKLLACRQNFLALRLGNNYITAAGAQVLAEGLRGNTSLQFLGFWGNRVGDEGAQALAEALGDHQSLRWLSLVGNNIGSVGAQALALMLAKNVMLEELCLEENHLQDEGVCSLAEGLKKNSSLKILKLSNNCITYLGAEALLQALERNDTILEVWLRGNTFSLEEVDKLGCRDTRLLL

B1: Nod2 lacking the LRRs (1-744) (other)
chain: MGEEGGSASHDEEERASVLLGHSPGCEMCSQEAFQAQRSQLVELLVSGSLEGFESVLDWLLSWEVLSWEDYEGFHLLGQPLSHLARRLLDTVWNKGTWACQKLIAAAQEAQADSQSPKLHGCWDPHSLHPARDLQSHRPAIVRRLHSHVENMLDLAWERGFVSQYECDEIRLPIFTPSQRARRLLDLATVKANGLAAFLLQHVQELPVPLALPLEAATCKKYMAKLRTTVSAQSRFLSTYDGAETLCLEDIYTENVLEVWADVGMAGPPQKSPATLGLEELFSTPGHLNDDADTVLVVGEAGSGKSTLLQRLHLLWAAGQDFQEFLFVFPFSCRQLQCMAKPLSVRTLLFEHCCWPDVGQEDIFQLLLDHPDRVLLTFDGFDEFKFRFTDRERHCSPTDPTSVQTLLFNLLQGNLLKNARKVVTSRPAAVSAFLRKYIRTEFNLKGFSEQGIELYLRKRHHEPGVADRLIRLLQETSALHGLCHLPVFSWMVSKCHQELLLQEGGSPKTTTDMYLLILQHFLLHATPPDSASQGLGPSLLRGRLPTLLHLGRLALWGLGMCCYVFSAQQLQAAQVSPDDISLGFLVRAKGVVPGSTAPLEFLHITFQCFFAAFYLALSADVPPALLRHLFNCGRPGNSPMARLLPTMCIQASEGKDSSVAALLQKAEPHNLQITAAFLAGLLSREHWGLLAECQTSEKALLRRQACARWCLARSLRKHFHSIPPAAPGEAKSVHAMPGFIWLIR
notes: also called Nod2ΔLRR; Nod2 (1-744)
B1: binds [1].

B2: caspase-1 (enzyme, UniProt P29466 1-404, looked up)
chain: MADKVLKEKRKLFIRSMGEGTINGLLDELLQTRVLNKEEMEKVKRENATVMDKTRALIDSVIPKGAQACQICITYICEEDSYLAGTLGLSADQTSGNYLNMQDSQGVLSSFPAPQAVQDNPAMPTSSGSEGNVKLCSLEEAQRIWKQKSAEIYPIMDKSSRTRLALIICNEEFDSIPRRTGAEVDITGMTMLLQNLGYSVDVKKNLTASDMTTELEAFAHRPEHKTSDSTFLVFMSHGIREGICGKKHSEQVPDILQLNAIFNMLNTKNCPSLKDKPKVIIIQACRGDSPGVVWFKDSVGVSGNLSLPTTEEFEDDAIKKAHIEKDFIAFCSSTPDNVSWRHPTMGSVFIGRLIEHMQEYACSCDVEEIFRKVRFSFEQPDGRAQMPTTERVTLTRCFYLFPGH
notes: Construct and tag not described
B2: no binding [2].

B3: procaspase-9 (enzyme, UniProt P55211 1-416, looked up)
chain: MDEADRRLLRRCRLRLVEELQVDQLWDALLSRELFRPHMIEDIQRAGSGSRRDQARQLIIDLETRGSQALPLFISCLEDTGQDMLASFLRTNRQAAKLSKPTLENLTPVVLRPEIRKPEVLRPETPRPVDIGSGGFGDVGALESLRGNADLAYILSMEPCGHCLIINNVNFCRESGLRTRTGSNIDCEKLRRRFSSLHFMVEVKGDLTAKKMVLALLELAQQDHGALDCCVVVILSHGCQASHLQFPGAVYGTDGCPVSVEKIVNIFNGTSCPSLGGKPKLFFIQACGGEQKDHGFEVASTSPEDESPGSNPEPDATPFQEGLRTFDQLDAISSLPTPSDIFVSYSTFPGFVSWRDPKSGSWYVETLDDIFEQWAHSEDLQSLLLRVANAVSVKGIYKQMPGCFNFLRKKLFFKTS
notes: as for B2
B3: no binding [2].

B4: caspase-4 (enzyme, UniProt P49662 1-377, looked up)
chain: MAEGNHRKKPLKVLESLGKDFLTGVLDNLVEQNVLNWKEEEKKKYYDAKTEDKVRVMADSMQEKQRMAGQMLLQTFFNIDQISPNKKAHPNMEAGPPESGESTDALKLCPHEEFLRLCKERAEEIYPIKERNNRTRLALIICNTEFDHLPPRNGADFDITGMKELLEGLDYSVDVEENLTARDMESALRAFATRPEHKSSDSTFLVLMSHGILEGICGTVHDEKKPDVLLYDTIFQIFNNRNCLSLKDKPKVIIVQACRGANRGELWVRDSPASLEVASSQSSENLEEDAVYKTHVEKDFIAFCSSTPHNVSWRDSTMGSIFITQLITCFQKYSWCCHLEEVFRKVQQSFETPRAKAQMPTIERLSMTRYFYLFPGN
notes: as for B2
B4: no binding [2].

B5: Bcl-10 (other, UniProt O95999 1-233, looked up)
chain: MEPTAPSLTEEDLTEVKKDALENLRVYLCEKIIAERHFDHLRAKKILSREDTEEISCRTSSRKRAGKLLDYLQENPKGLDTLVESIRREKTQNFLIQKITDEVLKLRNIKLEHLKGLKCSSCEPFPDGATNNLSRSNSDESNFSEKLRASTVMYHPEGESSTTPFFSTNSSLNLPVLEVGRTENTIFSSTTLPRPGDPGAPPLPPDLQLEEEGTCANSSEMFLPLRSRTVSRQ
notes: as for B2
B5: no binding [2].
